Test results reported in PMC3689434 (Biochemistry, 2013).
Like-named read-outs stand apart in the source and are kept apart here.

Key:
[1] = biological target: the molecule itself; assay: zonal velocity sedimentation in a glycerol gradient
[2] = biological target: the molecule itself; assay: as above; remark: listed apart in the source

B1: full-length Mycobacterium smegmatis polynucleotide phosphorylase (PNPase) (enzyme, UniProt A0QVQ5 1-763, looked up)
chain: MSVVELEDGVYESTAVIDNGSFGTRTIRFETGRLAQQAAGSAVAYLDDETMLLSATTASKNPKDHFDFFPLTVDVEERMYAAGRIPGSFFRREGRPSTDAILTCRLIDRPLRPSFVDGLRNEIQVVVTVMSLDPKDLYDVLAINAASMSTQLAGLPFSGPVGGARIALIDGTWVAFPTVEQLERAVFDMVVAGRIVGDGDSADVAIMMVEAEATENVVELVAGGAQAPTEAVVAEGLEAAKPFIKALCAAQQELADRAAKPAGEYPVFPDYEADVYDAVASVATEALAEALTIAGKTERNDRTDEIKVEVLERLAEPYAGREKEIGAAFRSLTKKLVRQRILTDHFRIDGRGITDIRALSAEVAVIPRAHGSALFERGETQILGVTTLDMIKMAQQIDSLGPENTKRYMHHYNFPPYSTGETGRVGSPKRREIGHGALAERALVPVLPSIEEFPYAIRQVSEALGSNGSTSMGSVCASTLALLNAGVPLKAPVAGIAMGLVSDDVDVDGKVEKRYVALTDILGAEDAFGDMDFKVAGTKDFVTALQLDTKLDGIPSQVLAGALSQAKDARLTILDVMAEAIDRPDEMSPYAPRITTIKVPVDKIGEVIGPKGKMINSITEETGAQISIEDDGTVFVGAADGLSAQAAIDKINAIANPQLPKVGERFLGTVVKTTDFGAFVSLLPGRDGLVHISKLGKGKRIAKVEDVVKVGDKLRVEIADIDNRGKISLVLVAEESAESAESAGDKGAEKAEGAAADVTPAEA
[1]
  stoichiometry N: 3

B2: M. smegmatis PNPase-(1-591) lacking the KH and S1 domains (domain or fragment, Mycobacterium smegmatis, UniProt A0QVQ5 1-591, looked up)
chain: MSVVELEDGVYESTAVIDNGSFGTRTIRFETGRLAQQAAGSAVAYLDDETMLLSATTASKNPKDHFDFFPLTVDVEERMYAAGRIPGSFFRREGRPSTDAILTCRLIDRPLRPSFVDGLRNEIQVVVTVMSLDPKDLYDVLAINAASMSTQLAGLPFSGPVGGARIALIDGTWVAFPTVEQLERAVFDMVVAGRIVGDGDSADVAIMMVEAEATENVVELVAGGAQAPTEAVVAEGLEAAKPFIKALCAAQQELADRAAKPAGEYPVFPDYEADVYDAVASVATEALAEALTIAGKTERNDRTDEIKVEVLERLAEPYAGREKEIGAAFRSLTKKLVRQRILTDHFRIDGRGITDIRALSAEVAVIPRAHGSALFERGETQILGVTTLDMIKMAQQIDSLGPENTKRYMHHYNFPPYSTGETGRVGSPKRREIGHGALAERALVPVLPSIEEFPYAIRQVSEALGSNGSTSMGSVCASTLALLNAGVPLKAPVAGIAMGLVSDDVDVDGKVEKRYVALTDILGAEDAFGDMDFKVAGTKDFVTALQLDTKLDGIPSQVLAGALSQAKDARLTILDVMAEAIDRPDEMSPYA
[2]
  binding result: binds

B3: M. smegmatis PNPase-(1-656) lacking the S1 domain (domain or fragment, Mycobacterium smegmatis, UniProt A0QVQ5 1-656, looked up)
chain: MSVVELEDGVYESTAVIDNGSFGTRTIRFETGRLAQQAAGSAVAYLDDETMLLSATTASKNPKDHFDFFPLTVDVEERMYAAGRIPGSFFRREGRPSTDAILTCRLIDRPLRPSFVDGLRNEIQVVVTVMSLDPKDLYDVLAINAASMSTQLAGLPFSGPVGGARIALIDGTWVAFPTVEQLERAVFDMVVAGRIVGDGDSADVAIMMVEAEATENVVELVAGGAQAPTEAVVAEGLEAAKPFIKALCAAQQELADRAAKPAGEYPVFPDYEADVYDAVASVATEALAEALTIAGKTERNDRTDEIKVEVLERLAEPYAGREKEIGAAFRSLTKKLVRQRILTDHFRIDGRGITDIRALSAEVAVIPRAHGSALFERGETQILGVTTLDMIKMAQQIDSLGPENTKRYMHHYNFPPYSTGETGRVGSPKRREIGHGALAERALVPVLPSIEEFPYAIRQVSEALGSNGSTSMGSVCASTLALLNAGVPLKAPVAGIAMGLVSDDVDVDGKVEKRYVALTDILGAEDAFGDMDFKVAGTKDFVTALQLDTKLDGIPSQVLAGALSQAKDARLTILDVMAEAIDRPDEMSPYAPRITTIKVPVDKIGEVIGPKGKMINSITEETGAQISIEDDGTVFVGAADGLSAQAAIDKINAIAN
[2]
  stoichiometry N: 1 to 3
